Test results from the supplement of paper PMC7125110.
± gives the standard error. This sample holds only a part of the variants without activity.

B1: glmS ribozyme (parent)
chain: AUAAAAGCGCCAGAACUACAGAAAUGUAGUUGACGAGGAGGAGGUUUAUCGAAUUUUCGGCGGAUGCCUCCAAA

Experiments:
Details in all cases: with glucosamine-6-phosphate
glucosamine-6-phosphate [1] = variants of: B1; experiment: self-cleavage kobs at 40 uM GlcN6P; higher = faster cleavage; RNA array
Outline: (§1)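 Tiles bearing barcoded ribozyme variants, transcribed in situ by E. coli RNA polymerase on sequenced MiSeq chips, were imaged over ~14 h at 37 °C using a hybridised Cy3 probe. Glucosamine-6-phosphate was supplied at 40 μM to 10 mM in HEPES/KCl/Mg(OAc)2 buffer. kobs came from one- or two-exponential decay fits to normalised per-tile medians, and weighted Michaelis–Menten fits then provided kcat and KM.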

glucosamine-6-phosphate [2] = variants of: B1; experiment: self-cleavage kobs at 160 uM GlcN6P; higher = faster cleavage; RNA array
Outline: as §1

glucosamine-6-phosphate [3] = variants of: B1; experiment: self-cleavage kobs at 640 uM GlcN6P; higher = faster cleavage; RNA array
Outline: as §1

glucosamine-6-phosphate [4] = variants of: B1; experiment: self-cleavage kobs at 2500 uM GlcN6P; higher = faster cleavage; RNA array
Outline: as §1

glucosamine-6-phosphate [5] = variants of: B1; experiment: self-cleavage kobs at 10000 uM GlcN6P; higher = faster cleavage; RNA array
Outline: as §1

G13U A52U C70G
self-cleavage kobs at 40 uM GlcN6P (glucosamine-6-phosphate [1]): < 1e-05 s⁻¹

G44A A48G
self-cleavage kobs at 40 uM GlcN6P (glucosamine-6-phosphate [1]): < 1e-05 s⁻¹
self-cleavage kobs at 160 uM GlcN6P (glucosamine-6-phosphate [2]): < 1e-05 s⁻¹
self-cleavage kobs at 640 uM GlcN6P (glucosamine-6-phosphate [3]): < 1e-05 s⁻¹
self-cleavage kobs at 2500 uM GlcN6P (glucosamine-6-phosphate [4]): < 1e-05 s⁻¹
self-cleavage kobs at 10000 uM GlcN6P (glucosamine-6-phosphate [5]): < 1e-05 s⁻¹

U49G A53U U56A C67A C70A
self-cleavage kobs at 40 uM GlcN6P (glucosamine-6-phosphate [1]): 4.31e-05 ± 1.9e-05 s⁻¹
self-cleavage kobs at 2500 uM GlcN6P (glucosamine-6-phosphate [4]): 0.000146 ± 2.4e-05 s⁻¹

A14U C16U G29U C50A G62U
self-cleavage kobs at 40 uM GlcN6P (glucosamine-6-phosphate [1]): < 1e-05 s⁻¹

G51A G62C C67A
self-cleavage kobs at 40 uM GlcN6P (glucosamine-6-phosphate [1]): < 1e-05 s⁻¹
self-cleavage kobs at 10000 uM GlcN6P (glucosamine-6-phosphate [5]): < 1e-05 s⁻¹

C10G G62A
self-cleavage kobs at 40 uM GlcN6P (glucosamine-6-phosphate [1]): < 1e-05 s⁻¹
self-cleavage kobs at 160 uM GlcN6P (glucosamine-6-phosphate [2]): < 1e-05 s⁻¹
self-cleavage kobs at 640 uM GlcN6P (glucosamine-6-phosphate [3]): < 1e-05 s⁻¹
self-cleavage kobs at 10000 uM GlcN6P (glucosamine-6-phosphate [5]): < 1e-05 s⁻¹

C10G C50G C58A C61A
self-cleavage kobs at 40 uM GlcN6P (glucosamine-6-phosphate [1]): 9.48e-05 ± 2.9e-05 s⁻¹
self-cleavage kobs at 10000 uM GlcN6P (glucosamine-6-phosphate [5]): 5.26e-05 ± 2e-05 s⁻¹

C58A U65A C67G
self-cleavage kobs at 40 uM GlcN6P (glucosamine-6-phosphate [1]): < 1e-05 s⁻¹

G13A C50A U69G
self-cleavage kobs at 40 uM GlcN6P (glucosamine-6-phosphate [1]): 4.48e-05 ± 2.2e-05 s⁻¹

C11G G40A A42G C58U C67G C68A
self-cleavage kobs at 40 uM GlcN6P (glucosamine-6-phosphate [1]): 0.00042 ± 9.3e-05 s⁻¹
self-cleavage kobs at 10000 uM GlcN6P (glucosamine-6-phosphate [5]): 0.000191 ± 3.9e-05 s⁻¹

G35C A48G A52C C70G
self-cleavage kobs at 40 uM GlcN6P (glucosamine-6-phosphate [1]): < 1e-05 s⁻¹

U31G A48U
self-cleavage kobs at 40 uM GlcN6P (glucosamine-6-phosphate [1]): < 1e-05 s⁻¹
self-cleavage kobs at 2500 uM GlcN6P (glucosamine-6-phosphate [4]): 8.46e-05 ± 1.6e-05 s⁻¹
self-cleavage kobs at 10000 uM GlcN6P (glucosamine-6-phosphate [5]): 5.93e-05 ± 2.1e-05 s⁻¹

G37U G41C C70U
self-cleavage kobs at 40 uM GlcN6P (glucosamine-6-phosphate [1]): < 1e-05 s⁻¹

A15G C67U
self-cleavage kobs at 40 uM GlcN6P (glucosamine-6-phosphate [1]): 0.000329 ± 5.2e-05 s⁻¹
self-cleavage kobs at 160 uM GlcN6P (glucosamine-6-phosphate [2]): 0.000674 ± 0.00013 s⁻¹
self-cleavage kobs at 640 uM GlcN6P (glucosamine-6-phosphate [3]): 0.00169 ± 0.00028 s⁻¹
self-cleavage kobs at 2500 uM GlcN6P (glucosamine-6-phosphate [4]): 0.00538 ± 0.0014 s⁻¹
self-cleavage kobs at 10000 uM GlcN6P (glucosamine-6-phosphate [5]): 0.00828 ± 0.0017 s⁻¹

C11U G41C
self-cleavage kobs at 40 uM GlcN6P (glucosamine-6-phosphate [1]): < 1e-05 s⁻¹
self-cleavage kobs at 160 uM GlcN6P (glucosamine-6-phosphate [2]): < 1e-05 s⁻¹

G7A G66U
self-cleavage kobs at 40 uM GlcN6P (glucosamine-6-phosphate [1]): < 1e-05 s⁻¹
self-cleavage kobs at 160 uM GlcN6P (glucosamine-6-phosphate [2]): < 1e-05 s⁻¹
self-cleavage kobs at 2500 uM GlcN6P (glucosamine-6-phosphate [4]): < 1e-05 s⁻¹
self-cleavage kobs at 10000 uM GlcN6P (glucosamine-6-phosphate [5]): < 1e-05 s⁻¹

C16A U31C A42G G44U C70G
self-cleavage kobs at 40 uM GlcN6P (glucosamine-6-phosphate [1]): < 1e-05 s⁻¹

G44A U69G
self-cleavage kobs at 40 uM GlcN6P (glucosamine-6-phosphate [1]): < 1e-05 s⁻¹
self-cleavage kobs at 640 uM GlcN6P (glucosamine-6-phosphate [3]): < 1e-05 s⁻¹
self-cleavage kobs at 2500 uM GlcN6P (glucosamine-6-phosphate [4]): < 1e-05 s⁻¹
self-cleavage kobs at 10000 uM GlcN6P (glucosamine-6-phosphate [5]): < 1e-05 s⁻¹

G43U G63U
self-cleavage kobs at 40 uM GlcN6P (glucosamine-6-phosphate [1]): < 1e-05 s⁻¹
self-cleavage kobs at 160 uM GlcN6P (glucosamine-6-phosphate [2]): < 1e-05 s⁻¹
self-cleavage kobs at 2500 uM GlcN6P (glucosamine-6-phosphate [4]): < 1e-05 s⁻¹
self-cleavage kobs at 10000 uM GlcN6P (glucosamine-6-phosphate [5]): < 1e-05 s⁻¹

C34A C61A G63U
self-cleavage kobs at 40 uM GlcN6P (glucosamine-6-phosphate [1]): < 1e-05 s⁻¹
self-cleavage kobs at 10000 uM GlcN6P (glucosamine-6-phosphate [5]): < 1e-05 s⁻¹

A42C U45A C67A
self-cleavage kobs at 40 uM GlcN6P (glucosamine-6-phosphate [1]): < 1e-05 s⁻¹

G41A G51C
self-cleavage kobs at 40 uM GlcN6P (glucosamine-6-phosphate [1]): < 1e-05 s⁻¹
self-cleavage kobs at 160 uM GlcN6P (glucosamine-6-phosphate [2]): < 1e-05 s⁻¹
self-cleavage kobs at 640 uM GlcN6P (glucosamine-6-phosphate [3]): < 1e-05 s⁻¹

U46A G51A
self-cleavage kobs at 40 uM GlcN6P (glucosamine-6-phosphate [1]): < 1e-05 s⁻¹
self-cleavage kobs at 160 uM GlcN6P (glucosamine-6-phosphate [2]): < 1e-05 s⁻¹
self-cleavage kobs at 2500 uM GlcN6P (glucosamine-6-phosphate [4]): < 1e-05 s⁻¹
self-cleavage kobs at 10000 uM GlcN6P (glucosamine-6-phosphate [5]): < 1e-05 s⁻¹

G13C G41U C70U
self-cleavage kobs at 40 uM GlcN6P (glucosamine-6-phosphate [1]): < 1e-05 s⁻¹

C10G A14C A36G U55A C71U
self-cleavage kobs at 40 uM GlcN6P (glucosamine-6-phosphate [1]): < 1e-05 s⁻¹

U55A C68U
self-cleavage kobs at 40 uM GlcN6P (glucosamine-6-phosphate [1]): 0.000668 ± 0.00012 s⁻¹
self-cleavage kobs at 160 uM GlcN6P (glucosamine-6-phosphate [2]): 0.000841 ± 0.00019 s⁻¹
self-cleavage kobs at 640 uM GlcN6P (glucosamine-6-phosphate [3]): 0.00148 ± 0.00045 s⁻¹
self-cleavage kobs at 2500 uM GlcN6P (glucosamine-6-phosphate [4]): 0.00477 ± 0.00099 s⁻¹
self-cleavage kobs at 10000 uM GlcN6P (glucosamine-6-phosphate [5]): 0.0158 ± 0.004 s⁻¹
